Assay results taken from patent US20250051435A1 (INVETX, published 2025).

T1: feline IL-5 (Kingfisher Biotech; RP1152F) (feline, UniProt O77515 20-134)
T1 construct: Bought recombinant protein; also called fIL-5; fIL5
T1 sequence (looked up): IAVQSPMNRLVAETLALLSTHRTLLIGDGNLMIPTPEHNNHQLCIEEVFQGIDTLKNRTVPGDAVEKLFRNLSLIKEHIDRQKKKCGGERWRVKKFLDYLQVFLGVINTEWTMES


Biological target: T1, feline IL-5 (Kingfisher Biotech; …)
Assay: SPR Biacore T200, IgG captured on goat anti-feline IgG CM5 chip, feline IL-5 as analyte
Text: Asparagine deamidation for asparagine residues and oxidation at methionine residues can negatively impact the potency and the stability of an antibody (Xu et al., 2019. MABS, 11:239-264). These post-translational modifications can be particularly problematic when they reside in the CDRs. […] DNA constructs were synthesized (GeneArt) encoding the MtxB clone with substitutions to eliminate the potential sequence liabilities. For the NG site in LCDR3, the Asn (position 106) was substituted with either a Gln or a Ser and for the Met in HCDR3 (position 115), a Len was substituted. The DNA constructs with the light chain variants were fused to the feline kappa constant domain. These DNA constructs were subcloned into the pcDNA3.4 expression vector (ThermoFisher) and expressed with the ExpiCHO system (ThermoFisher). The antibodies were purified with mAbSelect SuRe chromatography (Cytiva) and buffer exchanged into 20 mM sodium acetate, 136 mM sodium chloride, pH 5.5. The variants were tested in an SPR experiment using a Biacore T200 instrument to measure their affinity to feline IL-5 (Kingfisher Biotech; RP1152F). Goat anti-feline IgG was immobilized onto a Series S CM5 sensor chip (Cytiva) and the original MtxB clone and the variants containing the amino acid substitutions were captured on the chip at 5 μg/ml.

| Kd [nM] | koff [s⁻¹] | kon [M⁻¹ s⁻¹] | Binder |
| --- | --- | --- | --- |
| 3.6 | 0.00027 | 75000 | MtxB N106S (LCDR3) variant (antibody, V domains shown, Feline IgG with feline kappa constant domain) VH: DVQLVESGGDLVKPGGSLRLTCVGSGFTFSNYAMSWVRQAPGEGLQWVATIGSGGHYTYHPDSVKGRFTISRDNAKNTLYLQMNSLQTEDTASYYCTRETDGYDGMDYWGQGTLVTVSS VL: DIVMTQTPLSLSVTPGEPASISCRASQSISDYLYWYLQKPGQSPRRLIYYASQSISGVPDRFSGSGSGTDFTLRISRVEADDVGVYYCQSGHSFPYTFGPGTKLEIK |
| 0.56 | 8.6e-05 | 150000 | MtxB N106Q (LCDR3) variant (antibody, V domains shown, Feline IgG with feline kappa constant domain) VH: DVQLVESGGDLVKPGGSLRLTCVGSGFTFSNYAMSWVRQAPGEGLQWVATIGSGGHYTYHPDSVKGRFTISRDNAKNTLYLQMNSLQTEDTASYYCTRETDGYDGMDYWGQGTLVTVSS VL: DIVMTQTPLSLSVTPGEPASISCRASQSISDYLYWYLQKPGQSPRRLIYYASQSISGVPDRFSGSGSGTDFTLRISRVEADDVGVYYCQQGHSFPYTFGPGTKLEIK |

Biological target: T1, feline IL-5 (Kingfisher Biotech; …)
Assay: ELISA on plate-coated feline IL-5, Fab at 65 ng/ml dimerized with goat anti-feline IgG F(ab')2, anti-goat-HRP detection

| Normalized fIL-5 ELISA value, 65 ng/ml Fab | Binder |
| --- | --- |
| 0.283 | 1L2-H7 Fab (MtxB LCDR2 variant) (Fab, V domains shown, Fab from the MtxB LCDR2 library; the entry named is the parent, the changed CDR is told under detail) VH: DVQLVESGGDLVKPGGSLRLTCVGSGFTFSNYAMSWVRQAPGEGLQWVATIGSGGHYTYHPDSVKGRFTISRDNAKNTLYLQMNSLQTEDTASYYCTRETDGYDGMDYWGQGTLVTVSS VL: DIVMTQTPLSLSVTPGEPASISCRASQSISDYLYWYLQKPGQSPRRVFFTVSGGVSGVPDRFSGSGSGTDFTLRISRVEADDVGVYYCQNGHSFPYTFGPGTKLEIK |
| 0.251 | 2L2-G12 Fab (MtxB LCDR2 variant) (Fab, V domains shown, Fab from the MtxB LCDR2 library) VH: DVQLVESGGDLVKPGGSLRLTCVGSGFTFSNYAMSWVRQAPGEGLQWVATIGSGGHYTYHPDSVKGRFTISRDNAKNTLYLQMNSLQTEDTASYYCTRETDGYDGMDYWGQGTLVTVSS VL: DIVMTQTPLSLSVTPGEPASISCRASQSISDYLYWYLQKPGQSPRRVFFTPSDSASGVPDRFSGSGSGTDFTLRISRVEADDVGVYYCQNGHSFPYTFGPGTKLEIK |
| 0.559 | 1L2a-H2 Fab (MtxB LCDR2 variant) (Fab, V domains shown, Fab from the MtxB LCDR2 library; the entry named is the parent, the changed CDR is told under detail) VH: DVQLVESGGDLVKPGGSLRLTCVGSGFTFSNYAMSWVRQAPGEGLQWVATIGSGGHYTYHPDSVKGRFTISRDNAKNTLYLQMNSLQTEDTASYYCTRETDGYDGMDYWGQGTLVTVSS VL: DIVMTQTPLSLSVTPGEPASISCRASQSISDYLYWYLQKPGQSPRRVFYTDSAEVSGVPDRFSGSGSGTDFTLRISRVEADDVGVYYCQNGHSFPYTFGPGTKLEIK |

More lines, now with the values behind:

| Binder | Normalized fIL-5 ELISA value, 65 ng/ml Fab |
| --- | --- |
| 1L2-D1 Fab (MtxB LCDR2 variant) (Fab, V domains shown, Fab from the MtxB LCDR2 library; the entry named is the parent, the changed CDR is told under detail) VH: DVQLVESGGDLVKPGGSLRLTCVGSGFTFSNYAMSWVRQAPGEGLQWVATIGSGGHYTYHPDSVKGRFTISRDNAKNTLYLQMNSLQTEDTASYYCTRETDGYDGMDYWGQGTLVTVSS VL: DIVMTQTPLSLSVTPGEPASISCRASQSISDYLYWYLQKPGQSPRRIFFTESQRASGVPDRFSGSGSGTDFTLRISRVEADDVGVYYCQNGHSFPYTFGPGTKLEIK | 0.492 |
| 1L2-E7 Fab (MtxB LCDR2 variant) (Fab, V domains shown, Fab from the MtxB LCDR2 library; the entry named is the parent, the changed CDR is told under detail) VH: DVQLVESGGDLVKPGGSLRLTCVGSGFTFSNYAMSWVRQAPGEGLQWVATIGSGGHYTYHPDSVKGRFTISRDNAKNTLYLQMNSLQTEDTASYYCTRETDGYDGMDYWGQGTLVTVSS VL: DIVMTQTPLSLSVTPGEPASISCRASQSISDYLYWYLQKPGQSPRRIFFASSLYDSGVPDRFSGSGSGTDFTLRISRVEADDVGVYYCQNGHSFPYTFGPGTKLEIK | 0.366 |
| 1L2-D12 Fab (MtxB LCDR2 variant) (Fab, V domains shown, Fab from the MtxB LCDR2 library; the entry named is the parent, the changed CDR is told under detail) VH: DVQLVESGGDLVKPGGSLRLTCVGSGFTFSNYAMSWVRQAPGEGLQWVATIGSGGHYTYHPDSVKGRFTISRDNAKNTLYLQMNSLQTEDTASYYCTRETDGYDGMDYWGQGTLVTVSS VL: DIVMTQTPLSLSVTPGEPASISCRASQSISDYLYWYLQKPGQSPRRIFFGYSGTKSGVPDRFSGSGSGTDFTLRISRVEADDVGVYYCQNGHSFPYTFGPGTKLEIK | 0.303 |
